# Reference: doi:10.1101/2025.09.02.673809
# Target: HLA-DQ8 molecule (DQA1*03:01-DQB1*03:02) (human)
# Assay: ProImmune REVEAL MHC-peptide binding assay
binder,measurement,value
EALYLVCGNAVEVLK [insulin-derived 15-mer …],fold affinity against the reference peptide (T1D auto-antigen …),41 fold
